Source: publication PMC9482650, “Quantitative fragmentomics allow affinity mapping of interactomes” (Nature Communications, 2022)

Tests used:
Test in all cases: holdup assay
Design in all cases: key: below the threshold = too weak to quantify, mostly under pKd 3.1 to 4
LNX1_3, Q8TBB1 = target: LNX1_3, Q8TBB1
SCRIB_3, Q14160 = target: SCRIB_3, Q14160
PICK1, Q9NRD5 = target: PICK1, Q9NRD5
FRMPD3, Q5JV73 = target: FRMPD3, Q5JV73
SCRIB_2, Q14160 = target: SCRIB_2, Q14160
Inadl_6, Q8NI35 = target: Inadl_6, Q8NI35
SNX27, Q96L92 = target: SNX27, Q96L92
APBA2_2, Q99767 = target: T1, APBA2_2, Q99767
T1 sequence (Q99767 654-744, limits assumed, looked up): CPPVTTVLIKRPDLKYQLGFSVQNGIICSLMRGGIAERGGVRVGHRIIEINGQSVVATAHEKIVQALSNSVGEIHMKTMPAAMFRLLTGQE

PDZRN4_1, Q6ZMN7 = target: PDZRN4_1, Q6ZMN7
MAGI2_5, Q86UL8 = target: MAGI2_5, Q86UL8
MAGI1_1, Q96QZ7 = target: MAGI1_1, Q96QZ7
GRIP2_4, Q9C0E4 = target: GRIP2_4, Q9C0E4
GRIP1_5, Q9Y3R0 = target: T2, GRIP1_5, Q9Y3R0
T2 sequence (Q9Y3R0 568-668, limits assumed, looked up): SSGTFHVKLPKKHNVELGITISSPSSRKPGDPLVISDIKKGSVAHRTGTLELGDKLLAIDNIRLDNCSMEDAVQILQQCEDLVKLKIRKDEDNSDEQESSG

PDZRN3_1, Q9UPQ7 = target: T3, PDZRN3_1, Q9UPQ7
T3 sequence (Q9UPQ7 244-349, limits assumed, looked up): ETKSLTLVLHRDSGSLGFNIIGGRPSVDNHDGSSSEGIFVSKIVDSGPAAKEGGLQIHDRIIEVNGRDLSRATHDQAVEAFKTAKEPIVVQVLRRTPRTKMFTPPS

LNX1_2, Q8TBB1 = target: LNX1_2, Q8TBB1
FRMPD4, Q14CM0 = target: FRMPD4, Q14CM0
GRIP1_3, Q9Y3R0 = target: T4, GRIP1_3, Q9Y3R0
T4 sequence (Q9Y3R0 247-346, limits assumed, looked up): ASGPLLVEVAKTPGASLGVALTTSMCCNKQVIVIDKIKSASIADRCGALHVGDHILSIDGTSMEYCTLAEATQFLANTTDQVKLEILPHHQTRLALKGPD

LNX1_1, Q8TBB1 = target: LNX1_1, Q8TBB1
DLG4_3, P78352 = target: DLG4_3, P78352
MAGI1_2, Q96QZ7 = target: MAGI1_2, Q96QZ7
CASK, O14936 = target: CASK, O14936
GRIP2_7, Q9C0E4 = target: GRIP2_7, Q9C0E4
TX1BP3, O14907 = target: T5, TX1BP3, O14907
T5 sequence (O14907 10-122, limits assumed, looked up): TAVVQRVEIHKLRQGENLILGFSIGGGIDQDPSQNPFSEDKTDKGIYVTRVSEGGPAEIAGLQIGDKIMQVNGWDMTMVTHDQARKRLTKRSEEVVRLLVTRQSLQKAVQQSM

RADIL, Q96JH8 = target: T6, RADIL, Q96JH8
T6 sequence (Q96JH8 971-1071, limits assumed, looked up): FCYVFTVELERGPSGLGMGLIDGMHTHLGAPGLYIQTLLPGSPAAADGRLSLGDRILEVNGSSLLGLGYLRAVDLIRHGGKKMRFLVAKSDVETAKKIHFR

GORASP1, Q9BQQ3 = target: GORASP1, Q9BQQ3
DLG4_2, P78352 = target: DLG4_2, P78352
Inadl_1, Q8NI35 = target: Inadl_1, Q8NI35
SNTB1, Q13884 = target: T7, SNTB1, Q13884
T7 sequence (Q13884 107-205, limits assumed, looked up): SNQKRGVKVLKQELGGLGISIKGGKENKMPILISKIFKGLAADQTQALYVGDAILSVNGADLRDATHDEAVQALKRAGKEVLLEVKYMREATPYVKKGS

IL16_4, Q14005 = target: IL16_4, Q14005
MAGI2_6, Q86UL8 = target: MAGI2_6, Q86UL8
[1] = modified: phospho on T at position -2 from the C-terminal residue
[2] = plain residues with an end cap or a label only (N-terminal biotin on a linker: ado-ado)

Inadl_1, Q8NI35, sequence (Q8NI35 113-229): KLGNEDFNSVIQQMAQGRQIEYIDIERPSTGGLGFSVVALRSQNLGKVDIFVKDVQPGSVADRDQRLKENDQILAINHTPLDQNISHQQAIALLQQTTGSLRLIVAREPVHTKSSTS
SCRIB_3, Q14160, sequence (Q14160 999-1103): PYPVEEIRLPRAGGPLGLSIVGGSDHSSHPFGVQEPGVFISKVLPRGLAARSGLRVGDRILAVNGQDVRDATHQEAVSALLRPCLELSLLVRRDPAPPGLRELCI
LNX1_3, Q8TBB1, sequence (Q8TBB1 500-596): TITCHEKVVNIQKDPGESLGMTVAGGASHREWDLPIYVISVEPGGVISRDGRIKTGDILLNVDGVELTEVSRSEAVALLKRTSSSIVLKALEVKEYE
GORASP1, Q9BQQ3, sequence (Q9BQQ3 1-208): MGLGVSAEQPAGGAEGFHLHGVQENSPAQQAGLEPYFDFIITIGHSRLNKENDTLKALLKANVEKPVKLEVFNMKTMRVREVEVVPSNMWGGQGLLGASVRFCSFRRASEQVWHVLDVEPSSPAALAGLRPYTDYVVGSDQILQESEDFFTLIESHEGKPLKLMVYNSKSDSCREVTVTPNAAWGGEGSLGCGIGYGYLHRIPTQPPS
CASK, O14936, sequence (O14936 487-570): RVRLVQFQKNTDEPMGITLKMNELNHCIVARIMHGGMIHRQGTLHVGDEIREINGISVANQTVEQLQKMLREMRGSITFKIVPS
MAGI2_6, Q86UL8, sequence (Q86UL8 1141-1229): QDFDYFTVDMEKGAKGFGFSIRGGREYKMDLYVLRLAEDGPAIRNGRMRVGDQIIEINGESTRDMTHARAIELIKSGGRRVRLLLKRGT
DLG4_3, P78352, sequence (P78352 306-403): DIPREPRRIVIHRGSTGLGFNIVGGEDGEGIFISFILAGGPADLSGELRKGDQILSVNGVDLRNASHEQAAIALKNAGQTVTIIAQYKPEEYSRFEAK
MAGI2_5, Q86UL8, sequence (Q86UL8 915-1017): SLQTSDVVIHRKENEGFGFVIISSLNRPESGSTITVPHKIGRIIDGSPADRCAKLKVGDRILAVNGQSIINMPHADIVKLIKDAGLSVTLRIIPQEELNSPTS
PDZRN4_1, Q6ZMN7, sequence (Q6ZMN7 213-318): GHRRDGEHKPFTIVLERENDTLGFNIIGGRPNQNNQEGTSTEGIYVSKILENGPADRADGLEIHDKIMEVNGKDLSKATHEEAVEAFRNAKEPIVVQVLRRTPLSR
Inadl_6, Q8NI35, sequence (Q8NI35 1058-1167): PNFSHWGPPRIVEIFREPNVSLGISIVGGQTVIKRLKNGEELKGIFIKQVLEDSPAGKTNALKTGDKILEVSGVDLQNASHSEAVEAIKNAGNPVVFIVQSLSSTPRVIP
MAGI1_2, Q96QZ7, sequence (Q96QZ7 456-580): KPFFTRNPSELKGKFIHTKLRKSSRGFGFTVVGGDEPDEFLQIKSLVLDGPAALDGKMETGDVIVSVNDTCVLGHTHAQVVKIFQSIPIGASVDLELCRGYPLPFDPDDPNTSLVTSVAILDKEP
PICK1, Q9NRD5, sequence (Q9NRD5 17-115): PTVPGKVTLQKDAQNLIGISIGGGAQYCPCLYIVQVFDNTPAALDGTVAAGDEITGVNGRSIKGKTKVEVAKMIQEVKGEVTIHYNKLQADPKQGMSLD
DLG4_2, P78352, sequence (P78352 155-259): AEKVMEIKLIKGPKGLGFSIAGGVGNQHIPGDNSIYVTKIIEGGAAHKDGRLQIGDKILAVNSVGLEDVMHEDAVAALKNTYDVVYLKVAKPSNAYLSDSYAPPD
GRIP2_4, Q9C0E4, sequence (Q9C0E4 446-548): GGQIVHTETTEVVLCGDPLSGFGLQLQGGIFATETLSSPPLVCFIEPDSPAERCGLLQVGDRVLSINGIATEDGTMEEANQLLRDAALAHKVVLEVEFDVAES
LNX1_1, Q8TBB1, sequence (Q8TBB1 261-371): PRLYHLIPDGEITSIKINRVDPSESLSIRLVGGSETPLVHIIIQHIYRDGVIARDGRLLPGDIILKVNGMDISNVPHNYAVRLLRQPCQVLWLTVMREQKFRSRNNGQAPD
IL16_4, Q14005, sequence (Q14005 1229-1329): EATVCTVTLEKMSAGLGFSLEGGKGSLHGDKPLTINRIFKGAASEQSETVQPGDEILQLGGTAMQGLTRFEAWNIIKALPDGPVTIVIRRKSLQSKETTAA
FRMPD3, Q5JV73, sequence (Q5JV73 12-100): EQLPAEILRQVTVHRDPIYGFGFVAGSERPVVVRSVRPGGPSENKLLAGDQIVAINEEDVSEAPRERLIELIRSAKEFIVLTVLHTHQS
MAGI1_1, Q96QZ7, sequence (Q96QZ7 1-106): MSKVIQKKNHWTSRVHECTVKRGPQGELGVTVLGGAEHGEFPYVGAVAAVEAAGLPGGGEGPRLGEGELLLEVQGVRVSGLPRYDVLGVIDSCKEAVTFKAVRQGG
LNX1_2, Q8TBB1, sequence (Q8TBB1 371-470): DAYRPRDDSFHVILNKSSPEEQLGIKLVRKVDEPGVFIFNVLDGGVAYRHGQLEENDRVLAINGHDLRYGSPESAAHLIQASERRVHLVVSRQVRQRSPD
FRMPD4, Q14CM0, sequence (Q14CM0 67-160): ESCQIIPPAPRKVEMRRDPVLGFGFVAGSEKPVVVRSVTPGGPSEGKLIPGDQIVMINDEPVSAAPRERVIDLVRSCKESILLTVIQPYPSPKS
SCRIB_2, Q14160, sequence (Q14160 857-960): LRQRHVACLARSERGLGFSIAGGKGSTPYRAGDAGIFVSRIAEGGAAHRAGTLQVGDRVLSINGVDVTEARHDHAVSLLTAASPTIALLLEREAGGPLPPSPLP
GRIP2_7, Q9C0E4, sequence (Q9C0E4 934-1023): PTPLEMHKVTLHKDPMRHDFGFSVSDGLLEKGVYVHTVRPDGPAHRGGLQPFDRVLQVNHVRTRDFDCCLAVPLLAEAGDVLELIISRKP

B1: HPV18-E6_-2P, P06463 (peptide)
chain: RLQRRRETQV
pKd (LNX1_3, Q8TBB1; [1]): below the threshold | pKd (SCRIB_3, Q14160; [1]): below the threshold | pKd (PICK1, Q9NRD5; [1]): below the threshold | pKd (FRMPD3, Q5JV73; [1]): below the threshold | pKd (SCRIB_2, Q14160; [1]): below the threshold | pKd (Inadl_6, Q8NI35; [1]): below the threshold | pKd (SNX27, Q96L92; [1]): 3.61 | pKd (APBA2_2, Q99767; [1]): below the threshold | pKd (PDZRN4_1, Q6ZMN7; [1]): below the threshold | pKd (MAGI2_5, Q86UL8; [1]): below the threshold | pKd (MAGI1_1, Q96QZ7; [1]): below the threshold | pKd (GRIP2_4, Q9C0E4; [1]): below the threshold | pKd (GRIP1_5, Q9Y3R0; [1]): below the threshold | pKd (PDZRN3_1, Q9UPQ7; [1]): below the threshold | pKd (LNX1_2, Q8TBB1; [1]): below the threshold | pKd (FRMPD4, Q14CM0; [1]): below the threshold | pKd (GRIP1_3, Q9Y3R0; [1]): below the threshold | pKd (LNX1_1, Q8TBB1; [1]): below the threshold | pKd (DLG4_3, P78352; [1]): 3.51 | pKd (MAGI1_2, Q96QZ7; [1]): below the threshold | pKd (CASK, O14936; [1]): below the threshold | pKd (GRIP2_7, Q9C0E4; [1]): below the threshold | pKd (TX1BP3, O14907; [1]): below the threshold | pKd (RADIL, Q96JH8; [1]): below the threshold | pKd (GORASP1, Q9BQQ3; [1]): below the threshold | pKd (DLG4_2, P78352; [1]): 3.65 | pKd (Inadl_1, Q8NI35; [1]): below the threshold | pKd (SNTB1, Q13884; [1]): below the threshold | pKd (IL16_4, Q14005; [1]): below the threshold | pKd (MAGI2_6, Q86UL8; [1]): below the threshold

B2: PRKD2, Q9BZL6 (peptide)
chain: QGLAERISVL
pKd (LNX1_3, Q8TBB1; [2]): below the threshold | pKd (SCRIB_3, Q14160; [2]): 4.19 | pKd (PICK1, Q9NRD5; [2]): 4.17 | pKd (FRMPD3, Q5JV73; [2]): below the threshold | pKd (SCRIB_2, Q14160; [2]): below the threshold | pKd (Inadl_6, Q8NI35; [2]): 4.02 | pKd (SNX27, Q96L92; [2]): 4.78 | pKd (APBA2_2, Q99767; [2]): below the threshold | pKd (PDZRN4_1, Q6ZMN7; [2]): 3.66 | pKd (MAGI2_5, Q86UL8; [2]): 4.13 | pKd (MAGI1_1, Q96QZ7; [2]): below the threshold | pKd (GRIP2_4, Q9C0E4; [2]): below the threshold | pKd (GRIP1_5, Q9Y3R0; [2]): below the threshold | pKd (PDZRN3_1, Q9UPQ7; [2]): 3.84 | pKd (LNX1_2, Q8TBB1; [2]): below the threshold | pKd (FRMPD4, Q14CM0; [2]): 3.83 | pKd (GRIP1_3, Q9Y3R0; [2]): below the threshold | pKd (LNX1_1, Q8TBB1; [2]): 3.86 | pKd (DLG4_3, P78352; [2]): below the threshold | pKd (MAGI1_2, Q96QZ7; [2]): below the threshold | pKd (CASK, O14936; [2]): below the threshold | pKd (GRIP2_7, Q9C0E4; [2]): below the threshold | pKd (TX1BP3, O14907; [2]): 4.38 | pKd (RADIL, Q96JH8; [2]): 3.99 | pKd (GORASP1, Q9BQQ3; [2]): 4.08 | pKd (DLG4_2, P78352; [2]): 3.48 | pKd (Inadl_1, Q8NI35; [2]): below the threshold | pKd (SNTB1, Q13884; [2]): 4.92 | pKd (IL16_4, Q14005; [2]): 3.71 | pKd (MAGI2_6, Q86UL8; [2]): 3.98
